These results are taken from a protein production outcome set (Wang et al. 2014).

A short description of the data set: label from the status in PepcDB records.
For the sequence “MSLRIVVTVKYVPDATGDRHFAEDLTVDRDDVDGLLSELDEYAVEQALQIADDADDADDAEITVLTVGPEDAKDALRKALSMGADKAIHVEDDDLHGTDVIGTSLVLAKAIEKAGYDLVISGMASTDGTAGVVPALLAERLGVPQVTLLSEVSVEDGVVKGRRDGDSASEQLEASLPAVVSVTDQSGEARYPSFKGIMAAKKKPVESWDLSDLDLEAEEVGLEGAWTKVDSATERPARTAGTIVKDEGEGGKQLAEFLAGQKFI”, the protein production result was “failed”.

“MSLRLKKLQKIVPYSPLKSLKIWHLFCVVRLCSIVVTSMTAGKTPTHFTTQPLNRVLGETSGAFADLGTFLPLVLGLIALNQFSPQGIFLGFGVFAILSALFYRRPMPVQPMKVIAALVIAQGLTPGMLQASAMLMGIILLILAFSGAITWLAKQLSQAVSVGIQLAIGLQLMWMGAKMMSDFWLLGLGAFALLFASKFLPLRYLAMPLVIAAGMIWQANSQTDMATSLSIPALSASLHLAWPTLNEWSSAAILLVLPQLALTLTNAVIATSVMAQEKFPEDAAKLTPKNLAISSGLANLLLAPFGAAAMCHGAGGLAVQYHFGARTHLAPLIFGGTCLVIALFWDSQMAWLLGLIPVAILGSLLSIGGLQLAWSKRLIDGKPFCIFVILSTAVTCLAINAAAGLAVGIILEQGRRTWAMLAMR”: the protein production result is listed as “failed”.

On to “MSLRPRVLLVEDSTSLAILYKQYVKDEPYDIFHVETGRDAIQFIERSKPQLIILDLKLPDMSGEDVLDWINQNDIPTSVIIATAHGSVDLAVNLIQKGAEDFLEKPINADRLKTSVALHLKRAKLEDLVEGHHHHHH”, for which the protein production result was “not failed”.

Consider “MSLRSEQEMMDIFLDFALNDERIRLVTLEGSRTNRNIPPDNFQDYDISYFVTDVESFKENDQWLEIFGKRIMMQKPEDMELFPPELGNWFSYIILFEDGNKLDLTLIPIREAEDYFANNDGLVKVLLDKDSFINYKVTPNDRQYWIKRPTAREFDDCCNEFWMVSTYVVKGLARNEILFAIDHLNEIVRPNLLRMMAWHIASQKGYSFSMGKNYKFMKRYLSNKEWEELMSTYSVNGYQEMWKSLFTCYALFRKYSKAVSEGLAYKYPDYDEGITKYTEGIYCSVKEGHHHHHH”, for which the protein production result is “not failed”.

On to “MSLRSHFATQKDQWQTYTKEKKIKIGFDATFVPMGYEEKDGSYIGFDIDLANAVFKLYGIDVEWQAIDWDMKETELKNGTIDLIWNGYSVTDERKQSADFTEPYMVNEQVLVTKKSSGIDSVAGMAGKTLGAQAGSSGYDAFNASPKILKDVVANQKVVQYSTFTQALIDLNSGRIDGLLIDRVYANYYLEKSGVLDQYNVMPAGYEGESFAVGARKVDKTLIKKINQGFETLYKNGEFQKISNKWFGEDVATDQVKGKREGHHHHHH”, for which the protein production result is listed as “not failed”.

For the sequence “MSLRTGKTNVIALVLSVDEELMGFTSQMVFGITEVLSTTQYHLVVTPHIHAKDSMVPIRYILETGSADGVIISKIEPNDPRVRFMTERNMPFVTHGRSDMGIEHAFHDFDNEAYAYEAVERLAQCGRKRIAVIVPPSRFSFHDHARKGFNRGIRDFGLTEFPIDAVTIETPLEKIRDFGQRLMQSSDRPDGIVSISGSSTIALVAGFEAAGVKIGEDVDIVSKQSAEFLNWIKPQIHTVNEDIKLAGRELAKALLARINGEAAETLQSISGPVWSSMAPKEGHHHHHH”, the protein production entry is given as “not failed”.

In the case of “MSLRTLVAGVDTSTQSCKVRVTDAETGELVRFGQAKHPNGTSVDPSYWWSAFQEAAEQAGGLDDVSALAVGGQQHGMVILDNQGNVIRDAMLWNDTSSAPQAAALIEKLGAAPAQDGEPEDPIARGKQRWVKAVGSSPVASYTLTKVAWVAENEPENVKKIAAICLPHDWLSWRIAGYGPVAEGEDAHLEALFTDRSDASGTIYYDAASNEYRRDLIAMVLEAAEGAKAAQSHAEAIVLPTVLGPRDAAPVKADPAIAGKNVEGGCLLAPGGGDNAMASLGLGMAVGDVSISLGTSGVAAAISENPTYDLTGAVSGFADCTGHYLPLACTINGSRILDAGRAALGVDYDELAKLAFASKPGANGITLVPYFDGERTPNRPNATATFSGMTLANTTRENLARAFVEGLLCSQRDCLELIRSLGASITRILLIGGGAKSEAIRTLAPSILGMDVTRPATDEYVAIGAARQAAWVLSGETEPPAWQLTIDGVETGEPTEAVYEAYAKARGEGHHHHHH”, the protein production entry was “not failed”.

“MSLRVYVTGNITVDETWSIPDIPKKGASIHGVKVSQDIGGKGANQAIILSRCGIETRLIAATGNDSNGAWIRQQIKNEPLMLLPDGHFNQHSDTSIILNSADGDNAIITTTAAADTFSLDEMIPHMADAVAGDILLQQGNFSLDKTRALFQYARSRGMTTVFNPSPVNPDFCHLWPLIDIAVVNESEAELLQPYGVKTLVITQGAAGAWLVQEGQRQFCPAVPAEALDTTGAGDTFLAVMLASALLRGVAPDALALAHASRAAAITVSRRGTLSAFPGSRELAALLTTDGAEGHHHHHH”: the protein production result is “not failed”.

On to “MSLRWQWRIYEEPLQEPLTTAQGVWRSRSGIYLRLEDEQGQVGYGEIAPLPGWGSETLNADIALCQQLPGHLTPEIMATIPEALPAAQFGFATAWQSVGRLPYRVRPWPICALLGSGQAALEQWQQSWQRGQTTFKWKVGVMSPEEEQAILKALLAALPPGAKLRLDANGSWDRATANRWFAWLDRHGNGKIEYVEQPLPPDQWQALLSLAQTVTTAIALDESVVSAAEVQRWVDRGWPGFFVIKTALFGDPDSLSLLLRRGLEPQRLVFSSALEGAIARTAIFHLLETWQPCHALGFGVDRWRSAPLLTTLTAYERLWERLDQGHHHHHH”, for which the protein production entry is listed as “not failed”.

“MSLSASLPLAIERRPAAWTFTLSRPEKRNALSAELVEALIDGVDAAHREQVPLLVFAGAGRNFSAGFDFTDYETQSEGDLLLRMVRIEMLLQRVAGSPSLTLALAHGRNFGAGVDLFAACKWRYCTPEAGFRMPGLKFGLVLGTRRFRDIVGADQALSILGSARAFDADEARRIGFVRDCAAQAQWPALIDAAAEAATALDPATRATLHRVLRDDHDDADLAALARSAAQPGFKARIRDYLAQPAAEGHHHHHH”: the protein production result was “not failed”.

Take “MSLSFLKHVQDCNTHDLSNFVRFVIEGRRVGWVRKALAQRLKAHGRVFDVTRDAVLLSASLRTPQSRTRAVADVVDRLADEGVVPAPRGELYRVNQSWGEPTLMLLDRAVVPTFGVRAYGVHLNGYVGAGADLHLWIGRRSPDKSVAPGKLDNMVAGGQPADLSLRQNLIKECAEEADLPEALARQAIPVGAITYCMESPAGIKPDTLFLYDLALPEDFRPHNTDGEMADFMLWPAAKVVEAVRTTEAFKFNVNLTVIDFAIRHGLIDPDNEPDYQEILAGLRGRPRERAASEGHHHHHH”: the protein production result is recorded as “not failed”.

For the sequence “MSLSLKIALISQNENLLNLFPKLALEKNFIPITKTASLTRASKIAFGLQDEVDAIISRGATSDYIKKSVSIPSISIKVTRFDTMRAVYNAKRFGNELALIAYKHSIVDKHEIEAMLGVKIKEFLFSSEDEITTLISKVKTENIKIVVSGKTVTDEAIKQGLYGETINSGEESLRRAIEEALNLIEVRNEGHHHHHH”, the protein production entry is reported as “not failed”.

On to “MSLSLYYKKIREQLGHELIFMPSVAAVIKNEQGELLFQYPGGEYWSLPAGAIEPGETPEEAVIREVWEETGLKVQVKKQKGVFGGKEFRYTYANGDKVEYIVVVFECEITSGKLKSIDGESLKLQYFSFSEKPPLALPYPDKIFLEGHHHHHH”, for which the protein production result is “not failed”.

With “MSLSMRDPVIPGTSMAYHPFLPHRAPDFAMSAVLGHQPPFFPALTLPPNGAAALSLPGALAKPIMDQLVGAAETGIPFSSLGPQAHLRPLKTMEPEEEVEDDPKVHLEAKELWDQFHKRGTEMVITKSGRRMFPPFKVRCSGLDKKAKYILLMDIIAADDCRYKFHNSRWMVAGKADPEMPKRMYIHPDSPATGEQWMSKVVTFHKLKLTNNISDKHGFTLAFPSDHATWQGNYSFGTQTILNSMHKYQPRFHIVRANDILKLPYSTFRTYLFPETEFIAVTAYQNDKITQLKIDNNPFAKGFRDTGNGRREKRKQLTLQSMRVFDERHKKENGTSDESSSEQAAFNCFAQASSPAASTVGTSNLKDLCPSEGESDAEAESKEEHGPEACDAAKISTTTSEEPCRDKGSPAVKAHLFAAERPRDSGRLDKASPDSRHSPATISSSTRGLGAEERRSPVREGTAPAKVEEARALPGKEAFAPLTVQTDAAAAHLAQGPLPGLGFAPGLAGQQFFNGHPLFLHPSQFAMGGAFSSMAAAGMGPLLATVSGASTGVSGLDSTAMASAAAAQGLSGASAATLPFHLQQHVLASQGLAMSPFGSLFPYPYTYMAAAAAASSAAASSSVHRHPFLNLNTMRPRLRYSPYSIPVPVPDGSSLLTTALPSMAAAAGPLDGKVAALAASPASVAVDSGSELNSRSSTLSSSSMSLSPKLCAEKEAATSELQSIQRLVSGLEAKPDRSRSASP”, the protein production result is recorded as “failed”.

For “MSLSNHSSDIEVGHSMNLTNHFLVAMPSMKDPYFKRSVIYICEHNQDGAMGLMINAPIDITVGGMLKQVDIEPAYPQSHQENLKKPVFNGGPVSEDRGFILHRPRDHYESSMKMTDDIAVTTSKDILTVLGTEAEPEGYIVALGYSGWSAGQLEVELTENSWLTIEADPELIFNTPVHEKWQKAIQKLGISPAQLSSDAGHEGGSHHHHHH”, the protein production entry is listed as “not failed”.

Turning to “MSLSNKIFTHSLPMRYADFPTLVDALDYAALSSAGMNFYDRRCQLEDQLEYQTLKARAEAGAKRLLSLNLKKGDRVALIAETSSEFVEAFFACQYAGLVAVPLAIPMGVGQRDSWSAKLQGLLASCQPAAIITGDEWLPLVNAATHDNPELHVLSHAWFKALPEADVALQRPVPNDIAYLQYTSGSTRFPRGVIITHREVMANLRAISHDGIKLRPGDRCVSWLPFYHDMGLVGFLLTPVATQLSVDYLRTQDFAMRPLQWLKLISKNRGTVSVAPPFGYELCQRRVNEKDLAELDLSCWRVAGIGAEPISAEQLHQFAECFRQVNFDNKTFMPCYGLAENALAVSFSDEASGVVVNEVDRDILEYQGKAVAPGAETRAVSTFVNCGKALPEHGIEIRNEAGMPVAERVVGHICISGPSLMSGYFGDQVSQDEIAATGWLDTGDLGYLLDGYLYVTGRIKDLIIIRGRNIWPQDIEYIAEQEPEIHSGDAIAFVTAQEKIILQIQCRISDEERRGQLIHALAARIQSEFGVTAAIDLLPPHSIPRTSSGKPARAEAKKRYQKAYAASLNVQESLAEGHHHHHH”, the protein production entry is “not failed”.

As to “MSLSQDGLLGEVLSEGVLTLTLGRAPAHPLSRAMIAALHDALRRAMGDDHVHVLVIHGPGRIFCAGHDLKEIGRHRADPDEGRAFVTDLFEACSALMLDLAHCPKPTIALVEGIATAAGLQLMAACDLAYASPAARFCLPGVQNGGFCTTPAVAVSRVIGRRAVTEMALTGATYDADWALAAGLINRILPEAALATHVADLAGALAARNQAPLRRGLETLNRHLELPLEQAYALATPVMVEHFMDPGRRHLDWIDEGHHHHHH”, the protein production result was “not failed”.

In the case of “MSLSSGRTVPTRSHGLGKEGVSTTGASQVEFGDPELTARINDAMVQVEELLHTELSSGEDFLVDIVMHLTRAGGKRFRPMFALLASEFGEKPLSENVIKAAVVVEITHLATLYHDDVMDEASMRRGVPSANARWDNSVAILAGDILLAHASGLMSQLGTDTVAHFAETFGELVTGQMRETVGPRDTDPIEHYTNVIREKTGVLIASAGYLGAMHAGAAPEHIDALKNFGAAVGMIFQIVDDIIDIFSETHESGKTPGTDLREGVFTLPVLYALREDTPVGAELRDILTGPLEDDETVNHVLELLSQSGGRQAALDEVYRYMDIANAELDRLPDSTVKEALRNLATFTVKRVGEGHHHHHH”, the protein production entry is listed as “not failed”.
